# Assay results taken from patent publication US20120014941A1 (Hoffmann-La Roche, published 2012).
# T1: recombinant human Bv8 (PeproTech) (human, UniProt Q9HC23-2 28-108, biotinylated (Sulfo-NHS-LC-biotin) in the two competition ELISAs with coated antibody)
# T1 construct: Bought protein; also called HuBv8; prokineticin-2
# T1 sequence (looked up): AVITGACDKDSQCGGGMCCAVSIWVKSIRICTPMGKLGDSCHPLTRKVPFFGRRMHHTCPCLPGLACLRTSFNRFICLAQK
# Legend:
# [1] = molecular target: T1, recombinant human Bv8 (PeproTech); test: competitive ELISA: antibody in serial dilution mixed with biotinylated human Bv8 (57 pM) and put on plate coated with mouse 2G9 IgG1 (m5, the competitor); streptavidin-HRP, OD 450/620; four-parameter fit
# Method: Maxisorp 384 well plates were coated with 1 μg/ml parent mouse 2G9 IgG1 antibody at 25 μl/well in 50 mM sodium carbonate buffer, pH 9.6, at 4° C. overnight. Plates were washed with phosphate buffered saline (PBS) containing 0.05% polysorbate, pH 7.4 and blocked with PBS containing 0.5% BSA, 10 ppm Proclin, pH 7.4, at 80 μL1/well. After one-hour incubation at room temperature, plates were washed. A mixture of serially diluted humanized 2G9 antibodies (0.11 pM-180 nM) in PBS containing 0.5% BSA, 0.05% polysorbate 20, pH 7.4 and biotinylated human Bv8 (final concentration 0.5 ng/ml or 57 pM) were added at 25 μL1/well. After two hour incubation, plates were washed and horseradish peroxidase conjugated streptavidin (GE Healthcare) was added. After a final 30 minute incubation, plates were washed and the substrate 3,3′,5,5′-tetramethyl benzidine (Kirkegaard & Perry Laboratories) was added. The reaction was stopped by adding 1 M phosphoric acid and absorbance was read at 450 nm on a Multiskan Ascent reader (Thermo Scientific, Hudson, N.H.). For data analysis, the titration curves were fitted using a four-parameter nonlinear regression curve-fitting program and the IC₅₀ concentrations were determined (KaleidaGraph, Synergy Software, Reading, Pa.).
# [2] = molecular target: T1, recombinant human Bv8 (PeproTech); test: SPR (BIAcore 3000, 25 C): human Bv8 coupled to CM5 chip, IgG injected; 1:1 Langmuir fit
# From the text: For binding affinity determinations of anti-Bv8 antibodies (Fab or IgG), Surface Plasmon Resonance (SRP) measurement with a BIAcore™-3000 instrument was used. Briefly, CM5 biosensor chip was activated with EDC and NHS reagents according to the supplier's instructions, and human Bv8 (PeproTech) or Cynomologus Monkey (Genentech; PUR21590) was coupled to achieve approximately 150 response units (RU), then following by blocking un-reacted groups with 1M ethanolamine. For kinetics measurements, two-fold serial dilutions of anti-Bv8 Fabs (0.19 nM to 25 nM) or IgGs (0.019 nM to 10 nM) were injected in HBS-P buffer (0.01M HEPES pH 7.4, 0.15M NaCl, 0.005% surfactant P20) at 25° C. with a flow rate of 30 μl/min. Association rates (kₒₙ) and dissociation rates (koff) were calculated using a simple one-to-one Langmuir binding model (BIAcore Evaluation Software version 3.2). The equilibrium dissociation constant (Kd) was calculated as the ratio koff/kₒₙ.
# [3] = molecular target: Cynomologus Monkey Bv8 (Genentech; PUR21590) (cynomolgus monkey); test: SPR (BIAcore 3000, 25 C): cynomolgus monkey Bv8 coupled to CM5 chip, IgG injected; 1:1 Langmuir fit
# [4] = molecular target: T1, recombinant human Bv8 (PeproTech); test: competition ELISA: IgG in serial dilution preincubated with 2 nM biotinylated human Bv8, then put on plate coated with chimeric 2B9 IgG (the competitor); bound biotin-Bv8 read with streptavidin-HRP, in %
# Method: NUNC™ 96-well Maxisorp immunoplates (NUNC; Roskilde, Denmark) were coated with chimeric 2B9 IgG at 1 μg/mL in PBS overnight and then blocked for an hour at room temperature with PBST buffer (0.5% BSA and 0.05% Tween 20 in PBS). Biotinylation of human Bv8 was prepared using EZ-link Sulfo-NHS-LC-Biotin (Catalog 21335; Pierce; Rockford, Ill.) reagent in a molar ratio of 1:4 (HuBv8: biotin).
# To determine the amount of biotinylated human Bv8 in the competition assay, threefold serially diluted biotinylated human Bv8 from 100 nM to 0.04 nM were added to the antibody-coated plates for 15 minutes. Then, the plates were washed with PBT buffer (PBS and 0.05% Tween 20). Bound biotinylated were detected using streptavidin, which were conjugated with horseradish peroxidase (Catalog 21126; Pierce; Rockford, Ill.) and diluted 1:2500 in PBST buffer. […] The optical density was read spectrophotometrically at 450 nm.
# To map the Bv8 antibody epitopes with chimeric 2B9, threefold serial dilutions of IgGs (chimeric 2B9, chimeric 3F1, chimeric 2D3, chimeric 2G9 and control IgG) were first incubated with 2 nM biotinylated human Bv8, determined by the above binding assay, in PBST buffer for 1-2 hours at room temperature, and then transferring it onto antibody (chimeric 2B9 IgG; 1 μg/mL)-coated plate for 15 min. […]
# [5] = molecular target: T1, recombinant human Bv8 (PeproTech); test: phage competition ELISA: Fab-displaying phage preincubated with serially diluted soluble human Bv8 (the concentration on the axis), unbound phage captured on plate-coated human Bv8, anti-M13-HRP; bound phage in %
# Method: (§1) MAXISORP™ microtiter plates were coated with recombinant human Bv8 (PeproTech) at 2 μg/ml in PBS overnight and then blocked with PBST buffer (0.5% BSA and 0.05% Tween 20 in PBS) for an hour at room temperature (RT). Phage from culture supernatants were incubated with serially diluted human Bv8 in PBST buffer in a tissue-culture microtiter plate for an hour at RT, after which 80 μl of the mixture was transferred to the target-coated wells for 15 minutes to capture unbound phage. The plate was washed with PBT buffer (0.05% Tween 20 in PBS), and HRP-conjugated anti-M13 (Amersham Pharmacia Biotech) was added (1:5000 in PBST buffer) for 40 minutes. The plate was washed with PBT buffer and developed by adding tetramethylbenzidine substrate (Kirkegaard and Perry Laboratories, Gaithersburg, Md.). The absorbance at 450 nm was plotted as a function of target concentration in solution to determine phage IC₅₀.
# [6] = molecular target: T1, recombinant human Bv8 (PeproTech); test: phage competition ELISA, Fab displayed on phage
# Method: as §1
binder,measurement,setting,value
"chimeric 2G9 anti-Bv8 antibody (IgG) (antibody, V domains shown, also called chimeric 2G9 IgG) VH: EVQLQQSGPEVVKTGASVKISCKASGYSFTDYDMHWVKQSQGKSLEWIGYISCYNGATTYNQKFKGKATFTVDKSSTTAYMQFNSLTSEDSAVYYCARDGNYGEAYAMDYWGQGTSLTVSS VL: DIVLTQSPASLAVSLGQRATISCKASQSVDYDGDSYMNWYQQKPGQPPKLLIYAASNLESGIPARFSGSGSGTDFTLNIHPVEEEDAATYYCQQINEDPFTFGQGTKVEIK",IC50,[1],0.08 nM
same,Kd,[2],0.02 nM
same,koff,[2],1.8e-05 s⁻¹
same,kon,[2],758000 M⁻¹ s⁻¹
same,Kd,[3],0.04 nM
same,koff,[3],2.5e-05 s⁻¹
same,kon,[3],646000 M⁻¹ s⁻¹
same,IC50 (read off the curve),[4],~1 nM
"h2G9.K4G1 variant CDR-H3 D95E (Fab, V domains shown) VH: EVQLVQSGAEVKKPGASVKVSCKASGYSFTDYDMHWVRQAPGQGLEWIGYISCYNGATTYNQKFKGRVTITVDKSTSTAYLELSSLRSEDTAVYYCAREGNYGEAYAMDYWGQGTLVTVSS VL: DIVMTQSPDSLAVSLGERATINCKASQSVDYDGDSYMNWYQQKPGQPPKLLIYAASNLESGVPDRFSGSGSGTDFTLTISSLQAEDVAVYYCQQINEDPFTFGQGTKVEIK",IC50 (read off the curve),[5],~4 nM
same,fold drop in binding affinity compared to h2G9.K4G1,[6],100 fold
